Several values for one entry are separate records, joined by “and”; a condition that tells them apart may be missing. Identical values can stand only once.
B1: semenogelin II: isolated from human seminal fluid (protein, UniProt Q02383 24-582, looked up)
Semenogelin-2: QKGGSKGQLPSGSSQFPHGQKGQHYFGQKDQQHTKSKGSFSIQHTYHVDINDHDWTRKSQQYDLNALHKATKSKQHLGGSQQLLNYKQEGRDHDKSKGHFHMIVIHHKGGQAHHGTQNPSQDQGNSPSGKGLSSQCSNTEKRLWVHGLSKEQASASGAQKGRTQGGSQSSYVLQTEELVVNKQQRETKNSHQNKGHYQNVVDVREEHSSKLQTSLHPAHQDRLQHGPKDIFTTQDELLVYNKNQHQTKNLSQDQEHGRKAHKISYPSSRTEERQLHHGEKSVQKDVSKGSISIQTEEKIHGKSQNQVTIHSQDQEHGHKENKISYQSSSTEERHLNCGEKGIQKGVSKGSISIQTEEQIHGKSQNQVRIPSQAQEYGHKENKISYQSSSTEERRLNSGEKDVQKGVSKGSISIQTEEKIHGKSQNQVTIPSQDQEHGHKENKMSYQSSSTEERRLNYGGKSTQKDVSQSSISFQIEKLVEGKSQIQTPNPNQDQWSGQNAKGKSGQSADSKQDLLSHEQKGRYKQESSESHNIVITEHEVAQDDHLTQQYNEDRNPIST
B2: nidogen-1: recombinant human nidogen-1, linker protein in the basement membrane (protein, UniProt P14543 29-1247, looked up)
Nidogen-1: LSRQELFPFGPGQGDLELEDGDDFVSPALELSGALRFYDRSDIDAVYVTTNGIIATSEPPAKESHPGLFPPTFGAVAPFLADLDTTDGLGKVYYREDLSPSITQRAAECVHRGFPEISFQPSSAVVVTWESVAPYQGPSRDPDQKGKRNTFQAVLASSDSSSYAIFLYPEDGLQFHTTFSKKENNQVPAVVAFSQGSVGFLWKSNGAYNIFANDRESVENLAKSSNSGQQGVWVFEIGSPATTNGVVPADVILGTEDGAEYDDEDEDYDLATTRLGLEDVGTTPFSYKALRRGGADTYSVPSVLSPRRAATERPLGPPTERTRSFQLAVETFHQQHPQVIDVDEVEETGVVFSYNTDSRQTCANNRHQCSVHAECRDYATGFCCSCVAGYTGNGRQCVAEGSPQRVNGKVKGRIFVGSSQVPIVFENTDLHSYVVMNHGRSYTAISTIPETVGYSLLPLAPVGGIIGWMFAVEQDGFKNGFSITGGEFTRQAEVTFVGHPGNLVIKQRFSGIDEHGHLTIDTELEGRVPQIPFGSSVHIEPYTELYHYSTSVITSSSTREYTVTEPERDGASPSRIYTYQWRQTITFQECVHDDSRPALPSTQQLSVDSVFVLYNQEEKILRYALSNSIGPVREGSPDALQNPCYIGTHGCDTNAACRPGPRTQFTCECSIGFRGDGRTCYDIDECSEQPSVCGSHTICNNHPGTFRCECVEGYQFSDEGTCVAVVDQRPINYCETGLHNCDIPQRAQCIYTGGSSYTCSCLPGFSGDGQACQDVDECQPSRCHPDAFCYNTPGSFTCQCKPGYQGDGFRCVPGEVEKTRCQHEREHILGAAGATDPQRPIPPGLFVPECDAHGHYAPTQCHGSTGYCWCVDRDGREVEGTRTRPGMTPPCLSTVAPPIHQGPAVPTAVIPLPPGTHLLFAQTGKIERLPLEGNTMRKTEAKAFLHVPAKVIIGLAFDCVDKMVYWTDITEPSIGRASLHGGEPTTIIRQDLGSPEGIAVDHLGRNIFWTDSNLDRIEVAKLDGTQRRVLFETDLVNPRGIVTDSVRGNLYWTDWNRDNPKIETSYMDGTNRRILVQDDLGLPNGLTFDAFSSQLCWVDAGTNRAECLNPSQPSRRKALEGLQYPFAVTSYGKNLYFTDWKMNSVVALDLAISKETDAFQPHKQTRLYGITTALSQCPQGHNYCSVNNGGCTHLCLATPGSRTCRCPDNTLGVDCIEQK
B3: semenogelin I: isolated from human seminal fluid (protein, UniProt P04279 24-462, looked up)
Semenogelin-1: QKGGSKGRLPSEFSQFPHGQKGQHYSGQKGKQQTESKGSFSIQYTYHVDANDHDQSRKSQQYDLNALHKTTKSQRHLGGSQQLLHNKQEGRDHDKSKGHFHRVVIHHKGGKAHRGTQNPSQDQGNSPSGKGISSQYSNTEERLWVHGLSKEQTSVSGAQKGRKQGGSQSSYVLQTEELVANKQQRETKNSHQNKGHYQNVVEVREEHSSKVQTSLCPAHQDKLQHGSKDIFSTQDELLVYNKNQHQTKNLNQDQQHGRKANKISYQSSSTEERRLHYGENGVQKDVSQSSIYSQTEEKAQGKSQKQITIPSQEQEHSQKANKISYQSSSTEERRLHYGENGVQKDVSQRSIYSQTEKLVAGKSQIQAPNPKQEPWHGENAKGESGQSTNREQDLLSHEQKGRHQHGSHGGLDIVIIEQEDDSDRHLAQHLNNDRNPLFT

Legend:
PSA [1] = biological target: T1, PSA (Homo sapiens, UniProt P07288); test: Proteolytic cleavage of protein substrates by PSA (SDS-PAGE, silver staining); format: biochemical; conditions: 37°C; for time for degradation of half of the intact protein: substrate 1 µM (0.5 µM semenogelin I)
T1 construct: from tissue; host or cells: pooled human seminal fluid
T1 sequence (P07288 25-261): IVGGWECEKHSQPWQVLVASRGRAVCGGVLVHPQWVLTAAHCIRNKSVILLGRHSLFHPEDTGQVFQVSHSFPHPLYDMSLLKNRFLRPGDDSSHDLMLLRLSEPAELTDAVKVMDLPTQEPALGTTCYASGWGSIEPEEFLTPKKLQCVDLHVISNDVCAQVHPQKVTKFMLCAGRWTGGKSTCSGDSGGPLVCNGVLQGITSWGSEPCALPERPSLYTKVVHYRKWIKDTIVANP
Protocol: The major form of active PSA (isoform PSA-B) was purified from pooled human seminal fluid by immunoaffinity chromatography followed by anion exchange chromatography. Semenogelins I and II were isolated from human seminal fluid as previously described, but instead of alkylating the proteins, the reducing agent 30 mM dithiothreitol (Sigma-Aldrich, St. Louis, MO) was included in all buffers during purification. Semenogelins were stored in the purification buffer containing 2 M urea and 5 mM EDTA at −70°C. Prior to cleavage by PSA, the buffer was exchanged to 50 mM Tris, pH 7.7, containing 0.15 M NaCl (TBS), with Amicon Ultra centrifugal filter units (MW cut-off 30 kDa) (Millipore, Cork, Ireland) at 4°C, and protein concentration was determined by measuring absorbance at 280 nm.
Protein LoBind tubes (Eppendorf AG, Hamburg, Germany) were used in all protein degradation experiments.
PSA (0.2–1 µM) and 0.5–1 µM of each protein substrate were incubated at 37°C for 22 h in TBS buffer. During the incubation, samples of 15 µl were taken at different time points: 0 min, 10 min, 30 min, 2 h, 5 h and 22 h, and stored at −20°C before further analysis.
Immediately after each incubation, reducing 4× SDS-loading buffer (8% SDS), containing 1 M β-mercaptoethanol or 75 mM dithiothreitol, was added to each sample and proteins were denatured at 70°C for 10 min. The samples were immediately analyzed by SDS-PAGE or frozen at −20°C. Frozen samples were heated again at 70°C before loading on the gel. The cleavage of protein substrates by PSA, i.e., the disappearance of the full-length protein bands, was quantified from scanned images of silver stained gels by the measurement of relative optical densities of the protein bands using ImageJ [40].
Proteins were separated using the XCell SureLock Mini Cell system and pre-cast NuPAGE Novex 4–12% Bis-Tris Gels (both from Invitrogen, Carlsbad, CA). MES running buffer, pH 7.3, containing 50 mM MES [2-(N-morpholino)ethanesulfonic acid] (Sigma-Aldrich), 50 mM Tris base, 3.5 mM SDS and 1 mM EDTA was used. Dithiothreitol (0.5 mM) (Sigma-Aldrich) was added to the cathode buffer chamber.
Proteins were visualized either by silver staining or Western blotting. For silver staining (modified from), the gel was fixed for one hour at room temperature in 30% ethanol, containing 0.5% acetic acid, and rinsed with 20% ethanol and water for 10 min each. Then the gel was sensitized with 0.02% sodium thiosulfate for 1 min and rinsed twice with water. After 30 min incubation in 0.2% AgNO3, the gel was rinsed briefly with water and proteins were detected with development solution, containing 700 µl/l of 37% formaldehyde, 0.001% sodium thiosulfate and 3% anhydrous Na2CO3. The development reaction was finished with stop solution containing 5% Tris and 2.5% acetic acid.

HUVECs = test: HUVEC tube formation assay on Matrigel; format: cell-based, human; conditions: two separate experiments
Protocol: Human umbilical vein endothelial cells (HUVECs) were isolated from umbilical cord veins and grown in Endothelial Cell Growth Medium (Promocell, Heidelberg, Germany) with 2% Ultroser G BioSepra serum substitute (PALL BioSepra, Cergy, France) and growth factors EGF and bFGF. For tube formation, HUVECs were grown on top of Matrigel (BD Biosciences) as described previously, [29].
To study the effect of PSA-cleaved protein fragments, 0.08 µM nidogen-1 or 0.4 µM galectin-3 (10 µg/ml each) were first incubated with 1 µM PSA for 24 h at 37°C in PBS (Lonza). Then PSA activity was blocked by one-hour incubation at room temperature with 2 µM monoclonal antibody 5C7 [38]. The mixture containing nidogen-1 or galectin-3 fragments with PSA blocked by antibody or the same amount of intact nidogen-1 or galectin-3 were added together with the cells onto gelled Matrigel and the cells were allowed to form tubular networks for 20 h. Control wells contained either PBS or 1 µM PSA. After overnight incubation, cell culture medium was collected from PBS and PSA control wells for SDS-PAGE and Western blotting. Images of tubular networks (100×magnification) were taken using an Axiovert 200 inverted light microscope connected to an AxioCam digital camera and visualized by AxioVision software (all from Zeiss, Göttingen, Germany).

PSA [2] = biological target: T1, PSA; test: N-terminal sequencing of nidogen-1 fragments generated by PSA; format: biochemical; conditions: recombinant human nidogen-1, 1 µM, 2 µM PSA, 22 h, 37°C; Edman degradation; UniProt P14543 numbering
Protocol: For N-terminal sequencing, 1 µM (10 µg) nidogen-1 was first incubated with 2 µM (5 µg) PSA for 22 h at 37°C. Then the resulting protein fragments were separated by SDS-PAGE and electroblotted onto polyvinylidene-difluoride (PVDF) membrane. After staining with Coomassie Brilliant Blue the protein fragments were directly sequenced by Edman-degradation using the Procise 494A Sequencer (Perkin Elmer Applied Biosystems, Foster City, CA).

PSA [3] = biological target: T1, PSA; conditions: more than half of semenogelin I degraded; ref Malm and coworkers (2000), [16], [63]; cited from earlier work
Protocol: In the present study, we compared the proteolytic activity of PSA towards several protein substrates. As shown previously, semenogelins are cleaved very effectively by PSA. Malm and coworkers (2000) reported that more than half of semenogelin I is degraded after 15 min incubation with PSA [16], [63] and we observed this after 11 min incubation. Proteolysis of the other protein substrates, i.e., fibronectin, IGFBP-3, galectin-3 and nidogen-1, took much longer, reflecting the high substrate specificity of PSA for semenogelins. […] However, the detailed mechanism of the antiangiogenic activity of PSA remains unclear. Some of the proteolytically produced fragments of extracellular matrix (ECM) proteins act as endogenous angiogenesis inhibitors and may mediate the antiangiogenic effect of PSA. […] Although plasminogen ...

[4] = 0.2 µM PSA, TBS, disappearance of full-length band

Molecule	time for degradation of half of the intact protein (PSA [1]; [4]) [min]	time for degradation of 50% of the protein (PSA [1]; 0.2 µM PSA, 1 µM substrate, TBS, disappearance of full-length band) [h]	size of nidogen-1 fragments formed by PSA (PSA [1]; 1 µM PSA, 0.5 µM recombinant human nidogen-1, 20 h)	effect on tube formation, PSA-generated fragments (HUVECs; 10 µg/ml (0.08 µM nidogen-1, 0.4 µM galectin-3) precleaved by 1 µM PSA 24 h, PSA blocked by mAb 5C7, 20 h)	effect on tube formation, full-length protein (HUVECs; 10 µg/ml (0.08 µM nidogen-1, 0.4 µM galectin-3), 20 h, HUVECs on Matrigel)	cleavage site of PSA in nidogen-1 (PSA [2])	incubation time with more than half degraded by PSA (PSA [3]) [min]
B1	80						
B2		22	85 kDa and 55 kDa	did not have any effect on tube formation	did not have any effect on tube formation	GVVF^380 ↓ SYNTD	
B3	11						15
